Source: the MegaScale stability set (Tsuboyama et al. 2023)

B1: EHEE_rd2_0196 (parent)
chain: TETRTFDSEEEAKKAQKEAEKQGRTVTITRRDDRWEVRFD

Variants of: B1
Experiment: folding stability dG (cDNA display proteolysis); higher = more stable
Details: PBS, room temperature

Folding stability dG [kcal/mol]: each site, then its substitutions
T25: I 2.99; G 2.32; L 2.77; S 2.9; R 3.32; A 2.83; M 2.67; F 2.43; Y 2.33; N 2.69; W 2.22; P 2.21; K 3.13; V 3.09; H 3.16; D 1.97; Q 2.81; E 2.28
V37: H 0.212; A 1.89; G 1.09; F 1.02; C 1.8; D 0.415; E 0.37
R24: N 2.13; L 3.23; F 3.59; P 0.456; D 2.29; H 3; Y 3.62; A 2.56; M 3.32; G 1.93; S 2.19; K 3.01; T 2.22; W 3.24; I 3.23; Q 2.84; V 2.85; E 2
E20: Y 2.56; M 3.06; Q 2.86; P 0.742; G 2.13; D 2; T 2.52; S 2.47; C 2.81; F 2.77; N 2.53; A 2.88; I 2.85; H 2.64; V 2.67; R 2.46; L 3.14; K 2.4; W 2.94
I28: S 0.645; P 0.277; K 0.714; E 0.07; L 2.06; D -0.146; H -0.123; C 2.46; A 0.842; V 2.83; M 1.77; F 0.342; Y 0.332; G 0.232; R 1.31; N 0.423; T 1.18; Q 0.41
A19: P 0.448; R 1.21; G 2.75; V 1.78; S 1.97; T 1.27; L 3.39; Q 2.13; W 3.05; H 2.19; K 1.33; Y 3.25; N 1.72; M 3.04; I 2.47; F 3.12
Q22: M 3.24; W 2.8; I 2.83; T 2.82; L 3.19; E 3.06; V 2.81; A 3.08; P 1.55; S 2.92; Y 2.73; F 2.79; D 2.88; K 2.73; C 3.26; R 2.84; G 2.58; H 2.99; N 3.02
R31: Q 2.55; T 2.56; W 2.18; H 2.69; A 2.38; S 2.29; K 3.13; F 2.75; Y 2.57; D 1.79; L 2.9; E 2; V 3.43; G 1.68; M 2.78; P 0.846; I 3.27; N 2.57
D32: M 2.61; F 2.55; R 2.48; Y 2.19; I 2.11; V 2.29; G 3.98; S 2.45; H 2.83; W 1.84; E 3.07; A 2.92; P 1.75; N 3.29; K 3.01; L 2.63; T 2.06; Q 2.97
K21: Y 2.64; H 2.82; T 2.85; Q 3.11; P 1.11; V 2.72; N 2.96; S 3.19; R 3.11; F 2.66; E 3.18; W 2.55; A 3.41; M 3.11; I 2.82; L 3.22; G 3.06; D 3.08
T27: H 2.59; K 2.45; W 1.8; Y 1.95; V 2.88; P 0.682; E 2.03; Q 2.52; F 1.94; S 2.76; I 2.94; G 1.36; M 2; R 2.56; N 2.11; L 1.89; A 2.16; D 1.37; C 3.03
R30: W 2.68; S 1.94; H 2.59; M 2.8; G 1.71; Y 2.83; V 2.5; E 2.02; P 2.06; L 2.83; A 2.3; I 2.46; Q 2.81; N 2.25; D 0.983; F 3.33; T 1.91; K 3.11
G23: D 1.39; E 1.11; N 2.01; T 0.908; H 2.15; Q 1.67; A 1.56; C 2.46; L 1.47; V 0.857; F 1.81; S 1.57; K 1.61; P 0.683; I 0.786; R 1.63; Y 1.75; M 1.57; W 1.64
D33: A 1.96; E 2.7; H 2.5; L 1.71; W 1.34; T 2.09; M 1.95; N 3.08; C 2.47; S 2.36; V 1.4; K 2.17; I 1.37; R 1.83; Y 1.48; G 3.39; P 1.21; F 1.55; Q 2.46
W35: G 0.36; I 1.2; S 0.473; V 0.758; F 2.18; R 0.21; K 0.058; P 0.441; M 0.562; T 0.4; H 0.529; E 0.481; D 0.578; L 0.862; Q 0.348; N 0.396; Y 2.08; A 0.417
V26: H 0.258; T 2.76; L 1.23; F 0.841; E 0.318; I 2.08; D 0.12; A 3.4; P 1.87; S 3; N 0.69; G 2.61; K 0.184; W 0.253; C 3.6; Q 0.065; R 0.117; Y 0.849; M 1.18
R34: M 3.14; H 3.13; N 2.41; I 3.14; Q 2.96; P 0.669; F 3.14; S 2.76; A 2.81; T 2.7; D 2.03; K 3.51; Y 3.18; E 2.41; W 2.79; V 3.14; L 3.13; G 3.16
T29: R 2.76; F 2.3; L 2.53; E 2.48; Y 2.21; Q 2.59; D 1.71; W 1.8; N 2.45; S 2.73; M 2.48; H 2.75; P 0.016; A 2.36; K 2.44; G 2.02; I 3.19; V 3.16
E36: M 2.06; S 1.19; A 1.32; F 2.5; W 1.94; Y 2.57; I 2.99; T 1.74; V 2.89; Q 1.95; G 0.645; L 2.46; K 0.851; N 1.15; D 2.06; H 2.08; R 1.08
